Biological target: C3b

B1: Complement Factor I (FI) (protein)
chain: KVTYTSQEDLVEKKCLAKKYTHLSCDKVFCQPWQRCIEGTCVCKLPYQCPKNGTAVCATNRRSFPTYCQQKSLECLHPGTKFLNNGTCTAEGKFSVSLKHGNTDSEGIVEVKLVDQDKTMFICKSSWSMREANVACLDLGFQQGADTQRRFKLSDLSINSTECLHVHCRGLETSLAECTFTKRRTMGYQDFADVVCYTQKADSPMDDFFQCVNGKYISQMKACDGINDCGDQSDELCCKACQGKGFHCKSGVCIPSQYQCNGEVDCITGEDEVGCAGFASVTQEETEILTADMDAERRRIKSLLPKLSCGVKNRMHIRRKRIVGGKRAQLGDLPWQVAIKDASGITCGGIYIGGCWILTAAHCLRASKTHRYQIWTTVVDWIHPDLKRIVIEYVDRIIFHENYNAGTYQNDIALIEMKKDGNKKDCELPRSIPACVPWSPYLFQPNDTCIVSGWGREKDNERVFSLQWGEVKLISNCSKFYGNRFYEKEMECAGTYDGSIDACKGDSGGPLVCMDANNVTYVWGVVSWGENCGKPEFPGVYTKVANYFDWISYHVGRPFISQYNV
in vitro C3b breakdown assay (C3b incubated with FI and a fragment of cofactor CR1; time course by gel electrophoresis and GluC/SRM-MS): the formation of C3b fragments iC3b, C3f and C3c, and loss of intact C3b can be clearly detected over time

Source: patent US20240209367
